Reference: US11414460B2, “KRAS-specific capture agents, compositions, and methods of making and using” (Institute for Systems Biology, priority 2019, dated 2022)
Positions of bridges follow the written chain, without caps; N, C: chain ends. Non-standard residues stand in square brackets, D forms with d. Residues, ends and D or L forms follow the SMILES beside them. Triazole bridges read from a SMILES are 1,4-linked. No end group written: not given here. ξ: configuration not given here. dPhe(4-guanidino) = N=C(N)Nc1ccc(C[C@@H](N)C(=O)O)cc1; Phe(4-guanidino) = N=C(N)Nc1ccc(C[C@H](N)C(=O)O)cc1; ξLys(N3) = [N-]=[N+]=NCCCCC(N)C(=O)O; Aha = [N-]=[N+]=NCC[C@H](N)C(=O)O; Pra = C#CC[C@H](N)C(=O)O

Tests used:
[1] = target: T1, KRAS (G12D) (Homo sapiens, UniProt P01116, G12D); assay: ELISA binding of cyclic peptides to KRAS (G12D); conditions: absorbance units; for ELISA binding compared with LRGGnf: FIG. 3 and FIG. 4, 5 μM and 20 μM peptide, KRAS (WT) and KRAS (G12D)
Method: FIG. 2 is a graph of a single point ELISA assay comparing the binding (measured in absorbance units, A.U.) of cyclic peptide 7b10 (LRGDGnf; SEQ ID NO:5) and LRGGnf (SEQ ID NO:4) to KRAS (WT) and KRAS (G12D).
(§1) FIG. 3 is a graph of ELISA assays of four peptides (LRGGnf (SEQ ID NO:4), LRG (F—Br) (SEQ ID NO:6), LRGGnf-Az3 (SEQ ID NO:4), and LRGGnf-Az2 (SEQ ID NO:4)) at two different concentrations (5 μM and 20 μM) to KRAS (WT) and KRAS (G12D) comparing the binding (measured in absorbance units, A.U.). […] All of the cyclic peptides show preferential binding to KRAS (G12D) over KRAS (WT).
as §1, with “4” for “3”, “(QDNY” for “(LRGGnf”, “NO:14), QNGnfY” for “NO:4), LRG (F—Br)”, “NO:24), QQGnfGnf” for “NO:6), LRGGnf-Az3”, “NO:3),” for “NO:4),”, “LRGGnf” for “LRGGnf-Az2”

[2] = target: KRAS (WT) (Homo sapiens, UniProt P01116); assay: EC50 for KRAS (WT); type: binding
[3] = target: T1, KRAS (G12D); assay: EC50 for KRAS (G12D); type: binding

Compound	ELISA binding compared with LRGGnf [1]	also measured
LRGGnf: cyclic peptide with variable region LRGGnf (SEQ ID NO:4) (LRG[Phe(4-guanidino)]; also: cyclic peptide, only variable region given)		binding compared to LRGDGnf, single point ELISA ([1]; FIG. 2, single point ELISA to KRAS (WT) and KRAS (G12D)): 5 times
LRG (F—Br): cyclic peptide with variable region LRGF-Br (SEQ ID NO:6), F—Br is bromophenylalanine (LRG[bromophenylalanine]; also: cyclic peptide, only variable region given)	noticeable worse	
QDNY: cyclic peptide with variable region QDNY (SEQ ID NO:14) (also: cyclic peptide, variable region only, ring closure not given here)	more so	
N=C(N)Nc1ccc(C[C@H]2NC(=O)[C@@H](Cc3ccc(NC(=N)N)cc3)NC(=O)[C@@H](CCC(N)=O)NC(=O)[C@@H](CCC(N)=O)NC(=O)[C@@H](N)Cc3cn(nn3)CCCCC(C(N)=O)NC2=O)cc1 (stereo partly shown) [QQGnfGnf] (H-[Pra][dQ][dQ][dPhe(4-guanidino)][dPhe(4-guanidino)][ξLys(N3)]-NH2; triazole 1-6)		EC50 [2]: 3000 nM; EC50 [3]: 1000 nM
CC(C)C[C@@H]1NC(=O)[C@@H](N)Cc2cn(nn2)CC[C@@H](C(N)=O)NC(=O)[C@H](Cc2ccc(NC(=N)N)cc2)NC(=O)CNC(=O)[C@H](CCCNC(=N)N)NC1=O [LRGGnf-Az2] (H-[Pra]LRG[Phe(4-guanidino)][Aha]-NH2; triazole 1-6; N-terminus and C-terminus assumed)	slightly better	
LRGGnf-Az3: cyclic peptide LRGGnf (SEQ ID NO:4) with azidoornithine (OrnN3 or Az3) (LRG[Phe(4-guanidino)]; also: cyclic peptide, only variable region given, azidoornithine (Az3) modification, position not given here)	comparable to LRGGnf	
